Our source for the Kd values is PMC5608357, “Identification of LAG3 high affinity aptamers by HT-SELEX and Conserved Motif Accumulation (CMA)”.

Data set [1] has as its target T1, LAG3-Fc (rmLAG3-Fc) (mouse, UniProt Q61790 24-442). As to the kind of experiment: filter binding; 2 mM Ca2+; Filter binding: 20 mM HEPES pH 7.4, 150 mM NaCl, 2 mM CaCl2, 37 C, 30 min; SPR: PBS, 0.005% Tween 20, pH 7.4, temperature not stated. The settings on record: protein: recombinant; tags: human IgG2-Fc fusion; chain copies: 2; label: 32P (alpha-ATP).
The target in data set [2] is T1, LAG3-Fc (rmLAG3-Fc). As to the kind of experiment: SPR; apparent Kd from equilibrium RU; printed kon 1x10^3, koff <2.1x10^-4 s-1 do not match it; Filter binding: 20 mM HEPES pH 7.4, 150 mM NaCl, 2 mM CaCl2, 37 C, 30 min; SPR: PBS, 0.005% Tween 20, pH 7.4, temperature not stated. The settings on record: protein: recombinant; tags: human IgG2-Fc fusion; chain copies: 2. On the technique in general: Surface plasmon resonance follows binding to a sensor surface in real time, without labels.

T1 sequence (Q61790 24-442): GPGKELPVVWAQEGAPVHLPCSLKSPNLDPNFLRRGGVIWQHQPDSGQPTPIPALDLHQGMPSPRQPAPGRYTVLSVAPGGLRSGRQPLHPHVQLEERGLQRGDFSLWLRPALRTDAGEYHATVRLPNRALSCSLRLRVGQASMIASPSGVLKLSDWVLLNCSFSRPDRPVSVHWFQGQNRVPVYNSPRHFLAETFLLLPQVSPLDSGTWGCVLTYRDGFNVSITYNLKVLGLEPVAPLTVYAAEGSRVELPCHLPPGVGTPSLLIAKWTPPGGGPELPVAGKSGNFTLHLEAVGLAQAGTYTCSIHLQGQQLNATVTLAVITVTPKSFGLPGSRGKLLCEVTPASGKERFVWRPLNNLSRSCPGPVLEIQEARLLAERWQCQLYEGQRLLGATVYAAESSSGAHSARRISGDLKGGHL

B1: LAG3 Apt5 (structured_RNA)
RNA: GGGAGAGAGAUAUAAGGGUCUUGCCCAUCGACAAUAGAGCCCAGUCGCUGCCCAUUACCAAAUUCUCUCC
modifications: 2'-F-U, 2'-F-C
For B1, the Kd in the data set with LAG3-Fc (rmLAG3-Fc) [1] amounted to 200 nM.

B2: LAG3 Apt2 (structured_RNA)
RNA: GGGAGAGAGAUAUAAGGGUCUUGCCUGAUGGAGUUGGAGAGGACCAUCACCCAUUACCAAAUUCUCUCCC
modifications: 2'-F-U, 2'-F-C
As for B2, the Kd in the data set with LAG3-Fc (rmLAG3-Fc) [1] was determined as 50 nM.

B3: LAG3 Apt4 (structured_RNA)
RNA: GGGAGAGAGAUAUAAGGGACCGAAUCUGGUUAAUCUGCCUCACGUUAGGCCCAUUACCAAAUUCUCUCCC
modifications: 2'-F-U, 2'-F-C
Take B3: in the data set with LAG3-Fc (rmLAG3-Fc) [1], the Kd was 100 nM.

B4: LAG3 Apt1 (structured_RNA)
RNA: GGGAGAGAGAUAUAAGGGCCUCCUGAUACCCGCUGCUAUCUGGACCGAUCCCAUUACCAAAUUCUCUCCC
modifications: 2'-F-U, 2'-F-C
B4: the Kd with LAG3-Fc (rmLAG3-Fc) [1] worked out at 20 nM.

B5: LAG3 Apt1, biotinylated (structured_RNA)
RNA: B4 RNA
modifications: 2'-F-U, 2'-F-C
Take B5: the Kd with LAG3-Fc (rmLAG3-Fc) [2] was 2.7 nM.
